From the supplement of paper PMC10567573

B1: RIPK4 (parent)
chain: RERMELLEEAKKMEMAKFRYILPV

Variants of: B1
Test: protein stability index of a GFP-peptide fusion (GPS, HEK-293T) (PSI 1-6); higher = more stable
Conditions: c terminus: a fixed tail appended
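Note: lentivirally expressed fusions sorted by FACS into six bins by GFP to DsRed ratio, PSI derived from sequencing read proportions per bin multiplied by bin number.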

Protein stability index, by site and new letter:
K17: W 2.29, G 2.94, Q 3.5, Y 2.8, L 2.04, V 2.75, I 2.72, F 1.26, N 1.01, T 3.1, M 3.5, C 2.01, A 1.87, H 2.68, D 2.84, S 2.99, P 1.86
L6: W 3, N 3.66, T 3.49, H 3.87, K 3.88, I 3.98, Q 3.08, M 3.77, C 3.05, Y 3.83, G 3.54, A 3.19, R 3.56, V 2.9, S 3.19, D 4.56
K11: H 3.05, Y 1.08, L 4.66, D 4.09, C 2.24, I 2.39, E 3.97, M 2.45, Q 3.17, G 3.04, F 2.67, N 3.08, W 2.51, P 2.91, V 2.32, S 3.37, R 2.81, A 3.07
E14: V 1.71, C 3.63, L 2.44, F 1.86, G 2.44, W 2.92, T 2.65, Y 2.03, A 2.78, M 2.89, R 2.06, Q 3.12, K 2.21, N 2.79, S 2.86, P 3.29, D 3.8, I 2.16
E5: W 2.23, Y 2.29, G 2.6, I 2.26, F 2.81, A 2.9, R 2.97, T 2.34, L 2.75, M 3.12, P 3.01, K 2.36, C 2.63, S 2.11, N 2.87, H 1.99, V 2.29
R19: S 2.86, F 1.15, T 2.67, D 3.47, Q 3.65, H 2.6, A 1.96, I 1.27, Y 2.38, P 2.13, C 2.51, M 1.97, N 2.94, G 3.03, E 3.28, L 2.14, K 3.04
E8: H 2.67, V 1.69, F 2.68, L 2.11, T 3.16, K 3.42, C 3.01, M 2.69, Q 2.03, G 2.27, W 3.05, Y 2.62, S 3.06, R 3.5, P 3.14, N 2.04, D 2.86, I 2.11
K12: C 3.35, F 2.5, W 2.65, S 2.75, I 2.37, A 3.43, P 3.5, N 3.23, E 3.46, G 2.36, H 3.36, M 2.78, D 3.3, V 2.82, L 2.21, Q 3.41, Y 2.42, T 2.9
I21: W 2.05, N 3.85, K 3.45, Y 2.18, H 2.94, F 4.25, G 3.68, L 3.42, E 4.11, R 3.2
L7: A 3.35, P 4.01, C 3.94, S 3.66, I 3.42, E 3.74, Y 2.52, Q 3.87, K 3.99, M 3.48, D 3.43, W 2.43, F 3.4, T 4.19, N 3.54, V 2.78
R3: M 2.7, D 3.63, H 3.89, G 2.58, L 2.3, A 3.48, T 3.68, V 2.42, E 4.38, S 3.85, Q 4.19, I 2.39, F 2.58, W 1.73, C 3.26, Y 3.25, P 3.84, N 3.18
A16: K 3.8, H 4.27, Q 3.62, T 2.85, Y 3.32, N 4.29, W 2.58, E 2.9, F 2.29, P 3.49, I 3.02, C 2.54, V 3.03, G 3.31
R1: Q 3.9, S 3.53, T 3.13, W 2.5, Y 2.9, V 3.83
M15: H 4.28, Y 3.41, K 3.93, W 2, P 4.15, S 4.59, F 3.91, R 3.97, V 3.02, G 3.59, E 4.61, Q 3.34, L 3.48, I 4.15
F18: K 4.06, Q 3.61, N 4.03, P 3.86, M 2.75, T 3.81, C 2.75, I 2.79, G 3.69, E 3.55, A 3.16
M13: W 3.14, K 3.84, G 3.56, H 3.13, I 3.59, N 3.8, Q 3.31, P 2.34, V 2.85, A 3.1, T 3.06, S 3.51, E 3.19, L 3.37, Y 2.92, F 3.01
L22: A 4.27, I 5.51, K 4.1
E9: G 3.79, W 2.16, A 2.85, L 1.94, N 3.44, H 2.8, Y 2.49, I 2.57, V 2.43, Q 3.31, C 2.12, K 3.65, R 2.4, P 3.42, M 2.78, D 3.91, S 3.08, F 2.37, T 2.93
M4: C 3.69, N 3.94, P 3.8, K 3.74, T 3.53, S 3.59, I 3.08, A 3.99, G 5.3, Q 3.76, E 3.67, W 2.81, D 4.17, H 3.21, V 2.88, Y 2.82
A10: R 3.66, C 4.69, V 4.15, K 4.38, Y 3.93, F 3.48, Q 3.79, H 2.94, M 3.32, W 3.58, T 2.81, E 3.54, S 3.69, I 2.82, P 3.28, N 3.85, L 3.33, D 3.99
E2: L 2.57, M 2.37, P 3.75, G 2.57, Q 2.31, D 3.21, W 1.47, I 1.93, V 2.81, H 2.75, C 1.34, Y 2.74, A 2.42, N 3.59, F 2.27, R 2.67, S 2.77
Y20: M 2.18, Q 2.34, N 3.05, T 3.4, S 3.91, V 2.59, C 2.67, E 4.16, L 2.03, D 2.55, G 3.74, P 3.57, F 2.27, H 2.83, I 1.93, A 3.73, W 2.24
